Measurements as given in US6350609B1, “Electrospraying for mass fabrication of chips and libraries” (New York University, priority 1997, dated 2002).
Several values for one entry are separate records, joined by “and”; a condition that tells them apart may be missing. Equal entries are not always repeated.

Columns and labels:
[1] = target: Cytochrome C (equine) (Equus caballus, UniProt P00004); assay: Mechano-chemical effect of a specific ligand on cross-linked protein film (isometric tension); type: biochemical; conditions: electrospray deposited, reduction with dithionite
[2] = target: T1, alkaline phosphatase (Bos taurus, UniProt P19111); assay: Enzyme activity of electrospray-deposited alkaline phosphatase on nitrocellulose filter (BCIP/NBT substrate); type: biochemical; conditions: deposited through polypropylene mask onto wetted nitrocellulose filter; BCIP/NBT staining
T1 construct: purchased Sigma Chemical Company, St. Louis, Mo
Excerpt: The electrospray conditions used in this example were similar to those used in Example 1.
Likewise, the membrane filters on which alkaline phosphatase was deposited was soaked in a standard alkaline phosphatase substrate (5-bromo-4-chloro-3-indolyl phosphate/nitro blue tetrazolium substrate system kit, Sigma, St. Louis, Mo.), resulting in the formation of an insoluble blue colored product of the alkaline phosphatase reaction, and the pattern was visualized as shown in FIG. 12B.

[3] = Engström, 1961; cited from earlier work
[4] = target: T2, Alkaline phosphatase (AP) from bovine intestinal mucosa (Bos taurus, UniProt P19111); assay: Recovery of specific AP activity (pNPP) after electrospray deposition or drying; type: biochemical; conditions: for Activity % (ratio of specific activity of the electrospray-deposited AP to that in the initial solution): +(3-4) kV, 1-50 nA, 0.1 μL/min, tip distance 10 mm, humidity 65 ± 5%
T2 construct: purchased Sigma Chemical Co., St. Louis, Mo; host or cells: bovine intestinal mucosa
Excerpt: Materials. Alkaline phosphatase (AP) from bovine intestinal mucosa, p-nitrophenyl phosphate (pNPP substrate table set, Sigma Fast), trehalose and sucrose were obtained from Sigma Chemical Co., St. Louis, Mo. All other salts and buffer reagents were of analytical grade.
Design of Capillaries for Electrospray. Three different designs of the electrospray capillaries have been tested throughout this study. A first design, shown in FIG. 20A, is similar to the “nanoelectrospray ion source” (Wilm et al., 1994 and 1996) with a silver layer plated on the external surface of the capillary instead of gold. Glass capillaries with sealed ends were first treated for 20 seconds with an electrodeless plasma discharge at reduced pressure (0.01 Torr, discharge power of 10-20 W, in a Pyrex class chamber, 0.25 L). After such plasma cleaning, the glass capillaries were activated in an acidified solution of SnCl2 and 50 g of HCl per 1 L), washed with water and covered with a silver “mirror” (Yampolskii et al., 1981). This design is referred to as a capillary with an external electrode.
A second design, shown in FIG. 20B, is a modification of an electrospray capillary described by the laboratory of the present inventors (Morozov et al., 1993). In this capillary metal electrode (tungsten or stainless steel wire) is not exposed to a gas phase, thus reducing the risk of cornea discharge at high voltages. This second design is referred to as a capillary with an inner electrode.
In a third design, of the capillary (referred to as a bridge capillary), contact of protein solutions with a metal electrode was completely avoided by introducing a liquid bridge between them. […] Since the cross-section of the external capillary 5 is more than ten times larger than that of the inner capillary 7, the conductivity of the external capillary exceeds […] the conductivity of the inner capillary, making most of the current go through the large external capillary 5, whereas the internal plastic capillary 7 is used to supply protein solution.
A microprocessor controlled syringe pump (Cole-Parmer, Niles, Ill.) in combination with a 10 μL Hamilton microsyringe was used to feed the electrospray capillaries. The flow rate was 6-9 μL/h, and the outer diameter of the capillary tips varied in different experiments between 50 and 100 μm.
Chamber with Controlled Humidity. To control humidity during electrospray experiments with enzymes and to protect protein samples from contamination with dust particles present in the ambient air, the electrospray deposition was performed in a small (0.5 L) nearly cubic acrylic box, schematically presented in FIG. 21. A glass window was glued to one side of the box to enable sharp observation of the electrospray torch and substrate under a stereo microscope. The humidity and temperature inside the chamber were measured with solid state digital sensors (Fisher) with 2-4% precision for humidity and 0.2° C. for temperature. To increase the rate of sensor response and to keep the same humidity in all parts of the chamber, the air was stirred with a small fan. Dry air from a tank or air bubbled through water was introduced into the chamber until the required humidity was reached. The fan was then stopped, and electrospray initiated. Occasionally, portions of dry or wet gas were added during the spray experiment if the humidity deviated by more than 3-5% from the required level.
Mass Measurements of the Electrospray-Deposited Proteins. A home-built Quartz Crystal Microbalance (QCM; Sauerbrey, 1959) was used to measure the mass of the electrospray-deposited protein. The microbalance was made of commercial AT-cut quartz crystals (12-17 MHz, with silver electrodes of 5 mm in diameter) after removal of their protective shells. QCM calibration was performed using 0.1% solution of sugar in water. […]

[5] = target: Bovine intestinal AP (Bos taurus, UniProt P19111); conditions: McComb et al., 1979; cited from earlier work

Sequence of Cytochrome C (equine) (P00004 whole entry): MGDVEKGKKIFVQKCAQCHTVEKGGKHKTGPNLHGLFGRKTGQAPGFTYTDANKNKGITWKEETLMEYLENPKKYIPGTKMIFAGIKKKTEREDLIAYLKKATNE

| Molecule | Effect in Electrospray Deposit Sample % (relative change in isometric tension) [1] | enzymatic activity after electrospray deposition [2] | pI [3] | Activity % (ratio of specific activity of the electrospray-deposited AP to that in the initial solution) ([4]; Bridge Type capillary) [%] | AP activity after electrospray deposition at high voltage and current ([4]; V>7-8 kV, I>500-1500 nA) | AP activity preserved upon drying ([4]; addition of 50% (w/w) of disaccharide (sucrose or trehalose)) [%] | difference in specific AP activity of deposits made at low current before and after electrospray at 1500 nA from the same capillary ([4]; capillaries with internal and external electrodes) | Activity % (ratio of specific activity of the electrospray-deposited AP to that in the initial solution) ([4]; capillary with External Electrode) [%] | Activity % (ratio of specific activity of the electrospray-deposited AP to that in the initial solution) ([4]; capillary with Internal Electrode) [%] | AP inactivation upon electrospray deposition ([4]; capillary with internal electrode, humidity A=65%, currents not exceeding 50 nA) | decrease of AP activity upon electrospray deposition under low humidity ([4]; rapid drying of droplets in gas phase, low humidity, +4 kV, internal electrode, 10-50 nA, 6 μL/h) [%] | AP inactivation upon electrospray deposition ([4]; the two other capillary designs (external electrode, bridge), similar currents and humidity) [%] | pH of exposure causing irreversible inactivation [5] |
| --- | --- | --- | --- | --- | --- | --- | --- | --- | --- | --- | --- | --- | --- |
| O=S(O)S(=O)O [dithionite] | −41% and −49% | – | – | – | – | – | – | – | – | – | – | – | – |
| AP: Alkaline phosphatase (AP) from bovine intestinal mucosa, Sigma (protein, UniProt P19111 20-506, looked up) Intestinal-type alkaline …: LVPVEEEDPAFWNRQAAQALDVAKKLQPIQTAAKNVILFLGDGMGVPTVTATRILKGQMNGKLGPETPLAMDQFPYVALSKTYNVDRQVPDSAGTATAYLCGVKGNYRTIGVSAAARYNQCKTTRGNEVTSVMNRAKKAGKSVGVVTTTRVQHASPAGAYAHTVNRNWYSDADLPADAQMNGCQDIAAQLVNNMDIDVILGGGRKYMFPVGTPDPEYPDDASVNGVRKRKQNLVQAWQAKHQGAQYVWNRTALLQAADDSSVTHLMGLFEPADMKYNVQQDHTKDPTLQEMTEVALRVVSRNPRGFYLFVEGGRIDHGHHDDKAYMALTEAGMFDNAIAKANELTSELDTLILVTADHSHVFSFGGYTLRGTSIFGLAPSKALDSKSYTSILYGNGPGYALGGGSRPDVNDSTSEDPSYQQQAAVPQASETHGGEDVAVFARGPQAHLVHGVEEETFVAHIMAFAGCVEPYTDCNLPAPTTATSIPD | – | retained | 4.4 | 31 ± 12 | loses nearly all of its activity | 100 | no notable difference | 32 ± 9 | 55 ± 10 | approximately 45% | 30 | 70 | 4.5-5.0 |
